Experimental data as given in US7893197B2, “Relaxin-3 chimeric polypeptides and their preparation and use” (Janssen Pharmaceutica N.V., priority 2005, dated 2011).

Legend:
[1] = target: T1, GPCR135 (Homo sapiens, UniProt Q9NSD7); assay: Radioligand competition binding, [125I]-relaxin-3, membranes of transfected COS-7 cells; conditions: for binding / affinity for GPCR135, in words: highest concentration 1 μM
T1 construct: expressed in transfected cells
T1 sequence (Q9NSD7 1-469): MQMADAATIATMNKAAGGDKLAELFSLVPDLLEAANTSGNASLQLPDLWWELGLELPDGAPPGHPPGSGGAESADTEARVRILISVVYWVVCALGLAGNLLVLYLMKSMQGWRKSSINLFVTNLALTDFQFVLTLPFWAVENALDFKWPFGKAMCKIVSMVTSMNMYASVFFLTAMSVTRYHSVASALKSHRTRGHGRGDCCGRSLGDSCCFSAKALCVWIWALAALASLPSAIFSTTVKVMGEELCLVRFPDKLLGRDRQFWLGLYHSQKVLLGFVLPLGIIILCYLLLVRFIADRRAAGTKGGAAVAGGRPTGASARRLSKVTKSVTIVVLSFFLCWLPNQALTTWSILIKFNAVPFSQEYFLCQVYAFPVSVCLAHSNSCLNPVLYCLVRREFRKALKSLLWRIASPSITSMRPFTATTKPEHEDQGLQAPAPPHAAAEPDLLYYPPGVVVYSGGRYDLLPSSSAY

[2] = target: T2, GPCR142 (Homo sapiens, UniProt Q8TDU9, L329S); assay: as above; conditions: for binding / affinity for GPCR142, in words: highest concentration 1 μM
T2 construct: expressed in transfected cells
Excerpt: FIGS. 3A-3D illustrate the characterization of various relaxin-3 chimeric polypeptides using radioligand binding assays. Different relaxin-3 chimeric polypeptides were characterized for their receptor binding properties for human recombinant GPCR135 (FIG. 3A), GPCR142 (FIG. 3B), LGR7 (FIG. 3C), or LGR8 (FIG. 3D). For GPCR135, GPCR142, and LGR7, [^125I]-relaxin-3 was used as the radioligand at a final concentration of 100 pM. Different unlabeled peptides were used in the binding assay as the competitors. For LGR8, [^125I]-INSL3 was used as the radioligand at a final concentration of 100 pM. Different unlabeled peptides including relaxin-3 chimeras at various concentrations were added to the binding assay as the competitors. Data represent mean±SEM (n=3).
Radioligand binding assays for GPCR135 and GPCR142 were performed as previously described (Liu et al., 2003, Journal of Biological Chemistry, 278:50754-50764 and Liu et al., 2003, Journal of Biological Chemistry, 278:50765-50770). Membranes from COS-7 cells transiently transfected with either the GPCR135 expression vector or the GPCR142 expression vector, each described supra, were incubated with [^125I]-relaxin-3 at a final concentration 100 pM in 96-well plates. Peptides for competition binding studies were added to the binding mix (final volume: 200 μl) in binding buffer [50 mM Tris-HCl, pH 7.5, 5 mM EDTA, 1% bovine serum albumin, 0.1% protease inhibitor cocktails (Sigma)]. The binding mixtures were incubated at room temperature for 1 hour, filtered through GFC plates (Packard) pre-saturated with 0.3% Polyethylenimine (Sigma), and washed with cold washing buffer (50 mM Tris-HCl, pH 7.5, 5 mM EDTA). Microscint-40 was added to each well and the bound [^125I]-relaxin-3 was counted in a scintillation counter (TopCount/NTX, Packard).

[3] = target: T3, LGR8 (Homo sapiens, UniProt Q8WXD0); assay: Stimulation of β-galactosidase expression in SK-N-MC/β-gal cells; type: cell-based; conditions: highest concentration tested 1 μM
T3 construct: Human LGR8 cDNA containing the complete coding region was PCR amplified; expressed in transfected cells
Protocol: FIGS. 1A-1D show the activation of GPCR135 and GPCR142 by relaxin-3 B-chain, but not of LGR7 or LGR8. In FIG. 1A, SK-N-MC/β-gal cells expressing human GPCR135 were stimulated with relaxin-3, relaxin-3 B-chain, porcine relaxin, or INSL3 at various concentrations to inhibit the forskolin stimulated β-galactosidase expression. Forskolin was added to cells at a final concentration of 5 μM to stimulate the β-galactosidase expression. FIG. 1B depicts results for SK-N-MC/β-gal cells expressing human GPCR142 stimulated as in FIG. 1A. In FIG. 1C, SK-N-MC/β-gal cells expressing human LGR7 were stimulated with relaxin-3, relaxin-3 B-chain, porcine relaxin, and INSL3 at various concentrations to induce the β-galactosidase expression. The intracellular β-galactosidase activities were measured by a colorimetric assay using CRGP as the substrate and reading the absorbance at a wavelength of 570 nm. For FIG. 1D, SK-N-MC/β-gal cells expressing human LGR8 were stimulated as in FIG. 1C.
FIGS. 4A-4D illustrate the evaluation of the agonist activity of relaxin-3 chimeric polypeptides in biofunctional assays. Different chimeric polypeptides at various concentrations were added to SK-N-MC/β-gal cells expressing human GPCR135 (FIG. 4A) or GPCR142 (FIG. 4B) to inhibit forskolin stimulated β-galactosidase expression. Human relaxin-3 was used as the positive control. In parallel, chimeric polypeptides at various concentrations were added to SK-N-MC/β-gal cells expressing human LGR7 (FIG. 4C) and LGR8 (FIG. 4D) to stimulate β-galactosidase expression. Relaxin-3 and INSL3 were used as positive controls for LGR7 and LGR8, respectively. Intracellular β-galactosidase activity was measured by a colorimetric assay using CRGP as the substrate and reading the absorbance at wavelength of 570 nm. Data represent mean±SEM (n=3).
It has been shown that synthetic human relaxin-3 B-chain alone, but not A-chain, is an agonist for both GPCR135 and GPCR142 (Liu et al., 2003, Journal of Biological Chemistry, 278:50754-50764 and Liu et al., 2003, Journal of Biological Chemistry, 278:50765-50770). Those studies were repeated herein in SK-N-MC/β-gal cells, which harbor a β-galactosidase gene under the control of a cAMP responsive element (CRE) (Liu et al., 2001, Molecular Pharmacology, 59:420-426). In such SK-N-MC/β-gal cells, an increase in intracellular cAMP concentration leads to increased β-galactosidase gene expression, the activity of which is measured using Chlorophenol Red-β-D-Galactopyranoside (CPRG) as the substrate.
The inventive chimeric polypeptides were each independently tested for their ability to activate either GPCR135, GPCR142, LGR7, or LGR8, respectively, in separate pools of SK-N-MC/β-gal cells (see supra), each pool stably expressing one of the respective receptors, as indicated (FIG. 4).
Cells were seeded in 96-well tissue culture plate at a density of 30,000 cells/well in MEM plus 10% fetal serum, sodium pyruvate, penicillin, streptomycin, and G418 (400 mg/L). For cells expressing GPCR135 or GPCR142, forskolin was added to cells at a final concentration of 5 μM to stimulate intracellular cAMP accumulation. Different concentrations of each of the inventive polypeptides were then added to the cells to inhibit the forskolin induced cAMP accumulation. For cells expressing LGR7 or LGR8, intracellular cAMP was stimulated with each of the inventive chimeric polypeptides at various concentrations.
For all cells, after adding the chimeric polypeptides, cells were incubated for 6 additional hours in 37° C. incubator. The media was then aspirated and the β-galactosidase activities measured as previously described (Liu et al., 2001, Molecular Pharmacology, 59:420-426). The results were analyzed by Prism 3.0 software. […]

T2 sequence (Q8TDU9 whole entry L329S): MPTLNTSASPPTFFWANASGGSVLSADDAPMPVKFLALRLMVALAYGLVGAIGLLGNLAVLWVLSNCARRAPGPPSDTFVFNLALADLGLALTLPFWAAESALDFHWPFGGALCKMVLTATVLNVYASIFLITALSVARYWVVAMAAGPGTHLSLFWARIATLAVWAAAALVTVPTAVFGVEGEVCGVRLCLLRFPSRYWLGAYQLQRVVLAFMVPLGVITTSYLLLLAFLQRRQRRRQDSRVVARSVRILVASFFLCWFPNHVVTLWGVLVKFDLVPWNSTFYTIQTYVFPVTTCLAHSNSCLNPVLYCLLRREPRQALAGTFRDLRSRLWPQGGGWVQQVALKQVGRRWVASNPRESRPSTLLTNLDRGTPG
T3 sequence (Q8WXD0 whole entry): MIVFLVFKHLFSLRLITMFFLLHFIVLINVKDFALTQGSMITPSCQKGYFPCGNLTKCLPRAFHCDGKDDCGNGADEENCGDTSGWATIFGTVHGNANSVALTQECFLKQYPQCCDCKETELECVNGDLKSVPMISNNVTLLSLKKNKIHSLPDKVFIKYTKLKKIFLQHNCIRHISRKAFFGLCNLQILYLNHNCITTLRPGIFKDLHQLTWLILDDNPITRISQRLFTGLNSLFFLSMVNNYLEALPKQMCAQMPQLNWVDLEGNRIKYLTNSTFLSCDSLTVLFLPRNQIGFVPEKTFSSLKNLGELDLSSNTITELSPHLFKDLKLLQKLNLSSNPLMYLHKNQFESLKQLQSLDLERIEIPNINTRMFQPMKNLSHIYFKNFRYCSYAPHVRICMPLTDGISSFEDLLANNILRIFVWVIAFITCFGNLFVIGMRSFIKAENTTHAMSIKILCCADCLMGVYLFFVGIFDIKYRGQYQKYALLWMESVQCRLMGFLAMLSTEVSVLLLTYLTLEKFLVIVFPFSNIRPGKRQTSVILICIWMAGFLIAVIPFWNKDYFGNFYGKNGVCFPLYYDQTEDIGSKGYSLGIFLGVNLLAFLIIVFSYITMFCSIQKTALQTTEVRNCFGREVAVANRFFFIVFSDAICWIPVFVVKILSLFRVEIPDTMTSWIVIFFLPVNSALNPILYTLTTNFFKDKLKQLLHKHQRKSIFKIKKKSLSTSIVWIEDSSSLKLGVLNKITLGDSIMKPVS

| Substance | binding / affinity for GPCR135, in words [1] | binding / affinity for GPCR142, in words [2] | activation of LGR8, in words [3] | affinity for GPCR135 ([1]; discussion) | affinity for GPCR142 ([2]; discussion) |
| --- | --- | --- | --- | --- | --- |
| R3/I4: chimeric polypeptide: human relaxin-3 B-chain and INSL4 A-chain; mature polypeptide SEQ ID NO:22 (RAAPYGVRLCGREFIRAVIFTCGGSRWFDPFCCEVICDDGTSVKLC; Human Relaxin-3/Insulin-like 4 chimeric mature polypeptide) | marginal binding at the highest concentration (1 μM) | marginal binding at the highest concentration (1 μM) | no activity |  |  |
| R3/I5: chimeric polypeptide: human relaxin-3 B-chain and INSL5 A-chain; mature polypeptide SEQ ID NO:23 (RAAPYGVRLCGREFIRAVIFTCGGSRWQDLQTLCCTDGCSMTDLSALC; Human Relaxin-3/Insulin-like 5 chimeric mature polypeptide) | subnanomolar | low nanomolar range | inactive |  |  |
| R3/I6: chimeric polypeptide: human relaxin-3 B-chain and INSL6 A-chain; mature polypeptide SEQ ID NO:24 (RAAPYGVRLCGREFIRAVIFTCGGSRWGYSEKCCLTGCTKEELSIAC; Human Relaxin-3/Insulin-like 6 chimeric mature polypeptide) |  |  | inactive | 10 to 15 nM | 10 to 15 nM |
